From publication PMC6284106

What was measured:
[1] = biological target: human IL-2Rβγ heterodimeric Fc fusion (human) (UniProt P14784)
[2] = biological target: cynomolgus IL-2Rβγ heterodimeric Fc fusion (cynomolgus) (UniProt Q38J85); assay: SPR; Biacore T200; biotinylated IL2Rβγ-Fc heterodimer immobilised on streptavidin chips; fusion proteins injected 1.2-300 nM for 2 min, dissociation 10 min; regeneration 3 M MgCl2; global 1:1 model, 'apparent' KD (bivalent binding of the dimeric fusions)
[3] = biological target: human IL-2Rβγ heterodimeric Fc fusion (human) (UniProt P14784); assay: as above
[4] = biological target: human IL-2Rα, monomeric, his-tagged (human) (UniProt P01589); assay: SPR; Biacore T200; monomeric his-tagged IL-2Rα immobilised by amine coupling on CM5 chips; 2-fold dilution series (0.41 nM-300 nM) of the IL-2 fusion protein injected for 90 s, dissociation 3 min; regeneration 10 mM glycine pH 1.5; steady state model
Sequence of UniProt P01589 (P01589 22-272): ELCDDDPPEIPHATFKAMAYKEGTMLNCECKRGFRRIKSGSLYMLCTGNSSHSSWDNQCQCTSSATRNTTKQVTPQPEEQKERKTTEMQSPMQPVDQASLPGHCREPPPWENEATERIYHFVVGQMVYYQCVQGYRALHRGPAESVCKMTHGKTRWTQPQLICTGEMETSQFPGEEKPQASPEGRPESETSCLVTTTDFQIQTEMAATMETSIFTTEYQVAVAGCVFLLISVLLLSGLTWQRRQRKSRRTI

[5] = biological target: cynomolgus IL-2Rα, monomeric, his-tagged (cynomolgus); assay: as above
[6] = biological target: human IL-2Rβγ heterodimeric Fc fusion (human) (UniProt P14784); remark: listed apart in the source

Kd [2] [nM]	Kd [3] [nM]	Kd [4] [nM]	Kd [5] [nM]	Substance	further results
0.04	0.003			IgG-(IL-2)2 (from UniProt P60568 21-153)	EC50 of pSTAT5 induction in memory and naïve Tregs, human whole blood [1]: 0.3 pM
0.57	0.24			IgG-(IL-2N88D)2 (from UniProt P60568 21-153)	EC50 of pSTAT5 induction in CD4+ effector memory T cells, human whole blood [6]: > 10000 pM; EC50 of pSTAT5 induction in CD4+ naïve Tregs, human whole blood [6]: 18 pM; EC50 of pSTAT5 induction in CD56bright NK cells, human whole blood [6]: > 1000 pM

The next lines start with the substance.

Substance	Kd [2] [nM]	Kd [3] [nM]	Kd [4] [nM]	Kd [5] [nM]	further results
IgG-(IL-2)2 (wild-type dimer: two human IL-2 fused to a non-targeted, effector-silent human IgG1) (from UniProt P60568 21-153)			5	15	
IgG-(IL-2N88D)2 (two human IL-2 N88D muteins fused to a non-targeted, effector-silent human IgG1) (from UniProt P60568 21-153)			22	30	
IgG-IL-2 (from UniProt P60568 21-153)	0.18	0.04			
IgG-IL-2 (wild-type monomer: one human IL-2 fused to a non-targeted, effector-silent human IgG1) (from UniProt P60568 21-153)			15	30	
